Measured values published in patent publication US20240423474A1, “SYSTEM AND METHOD FOR INTRAOPERATIVE LIFETIME IMAGING” (The General Hospital Corporation, priority 2021, published 2024).

Tests used:
FaDu cells = experiment: Confocal FLIM of FaDu cells incubated with imaging probes; format: cell-based; conditions: 100 μg probe, 2 hours incubation
Procedure: Also, a […] 8 FALCON (Leica, Germany) FLIM system was used for NIR FLIM of 10-μm thin tissue sections (murine tumors and clinical specimens). Imaging was performed using 730 nm excitation with 750 nm notch filter and detected with a HyD R detector operating within 770-850 nm range. A 10×, 0.4 NA objective was used for image collection and digital images with 512×512 pixels (2.275 μm/pixel), 4 line repetitions and 4 line averages were obtained. TD data was collected using time-correlated single photon counting.
For in vitro experiments, FaDu cells were plated at 0.2×10^6 cells per well in a 12-well plate containing poly-D-lysine coated glass coverslips and were allowed to adhere to the coverslips for 24 hours. […] After probe incubation, cells were fixed in 4% para-formaldehyde (PFA) and mounted with ProLong Gold Antifade medium (ThermoFisher Scientific, Waltham, Massachusetts, United States) for confocal FLIM.
For the FLIM and IHC image analysis, the FALCON/FLIM software was used to collect and analyze the FLIM data. Lifetime values at each pixel location was calculated by using a single exponential fitting of the fluorescence decay curves. […] IHC image ROIs were analyzed by color deconvolution using the IHC Tool Box in ImageJ (NIH, Version 1.48u) to extract EGFR positive pixels within each ROI. […] Corresponding FLIM image ROIs were analyzed by averaging FLT values above 0.3 ns. […]

[1] = Widefield FLT of probes in culture media and stock solution in PBS; format: physicochemical
Text: In accordance with one particular and non-limiting study, for widefield time-domain imaging, a system akin that of FIG. 1 was used that included a Supercontinuum laser and tunable filter (EXR-20, SuperK Varia, NKT Photonics, 80 MHz repetition rate; 400-850 nm tuning range) providing 770±30 nm excitation, a multimode fiber (Thorlabs, Newton, New Jersey, United States) delivering light to the sample, and a gated intensified CCD (LaVision, Picostar, 500 V gain, 0.1 to 1 second integration time, 150 ps steps, 256×344 pixels after 4×4 hardware binning). A digital micromirror device was used to expand the output of the optical fiber and delivered to the surface of the animal. The average total power across the illumination area (approximately 6×8-cm) was 10 to 20 mW. Fluorescence was collected in reflectance mode using an 835/70-nm band-pass filter. TD fluorescence imaging was performed with a gate width of 600 ps and 150 ps steps for a total duration of approximately 6 ns per laser duty cycle of 12.5 ns. […] Animals were sacrificed after imaging and tumors were immediately frozen in optimal cutting temperature (OCT) compound for fluorescence lifetime imaging microscopy (FLIM), histology and immunohistochemical (IHC) staining.
For the widefield TD data analysis, TD fluorescence images were analyzed in MATLAB (MathWorks, Natick, Massachusetts, United States) using a custom software. […]

[2] = several recent clinical trials; cited from earlier work

panitumumab-IRDye800CW: conjugate of the FDA approved therapeutic antibody for the epidermal growth factor receptor (EGFR), panitumumab, with IRdye800CW, an NIR dye
probe uptake in cells (FaDu cells): higher probe uptake | FLT in culture media ([1]; culture media collected after incubation with cancer cells): 0.58 ns | FLT of stock solution in PBS ([1]; stock solution in PBS): 0.58 ns | safety in humans [2]: safe for human use
